These are literature values, as cited in PMC5371383.

The target in one series is MC1R (Gallus gallus) (UniProt P55167).
The next series deals with MC1R (Homo sapiens) (UniProt Q01726).
Chain of UniProt Q01726 (Q01726 whole entry): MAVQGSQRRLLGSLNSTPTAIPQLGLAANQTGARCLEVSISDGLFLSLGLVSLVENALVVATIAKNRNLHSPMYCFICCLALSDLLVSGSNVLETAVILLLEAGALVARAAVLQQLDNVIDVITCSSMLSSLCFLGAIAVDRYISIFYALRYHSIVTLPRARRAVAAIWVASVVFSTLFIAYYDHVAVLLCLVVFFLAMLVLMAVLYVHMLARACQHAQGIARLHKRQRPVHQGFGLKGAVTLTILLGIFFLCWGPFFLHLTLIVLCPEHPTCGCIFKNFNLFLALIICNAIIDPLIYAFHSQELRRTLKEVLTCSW

Chain of UniProt P55167 (P55167 whole entry): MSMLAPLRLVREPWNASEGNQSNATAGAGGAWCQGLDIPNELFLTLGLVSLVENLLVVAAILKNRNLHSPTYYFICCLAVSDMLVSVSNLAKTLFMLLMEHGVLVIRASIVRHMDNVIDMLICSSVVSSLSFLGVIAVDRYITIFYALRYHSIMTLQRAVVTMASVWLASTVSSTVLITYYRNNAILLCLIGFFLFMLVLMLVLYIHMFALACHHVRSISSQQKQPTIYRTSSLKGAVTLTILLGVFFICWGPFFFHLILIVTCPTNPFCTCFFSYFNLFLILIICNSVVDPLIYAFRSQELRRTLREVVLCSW

By Kd is commonly meant the equilibrium constant for the complex coming apart. As for α-MSH (from UniProt P01189), the Kd with MC1R (Gallus gallus) is 363 nM; with MC1R (Homo sapiens), 0.21 nM.
